A short description of this data set: label from the status in PepcDB records.
With “MRALRGWPLAWFLLALAFAIRLLSLGSYPLMDTTEARYGEVARKMAELGDWITPWYDVGVPFWGKPPLAFWLSAGGQLLLGANEFASRLPHWLLGVLVLWLVWDWQAREDRRQARIACVLLGSSALFFVASGAVMTDMALALALVLAMRGFWLGLHGAEGIRRREGWLMFLGLGLGLLAKGPLTLILAGLPIGLWALLEWRWRALWRGLPWIRGSLLMLLVAAPWYLLAELKTPGFLEYFLLGEHWQRFVTAGWDGDRYGNAHAYPYGSVWLFLLAAAFPWSLWLPLLLWLGWRQRGEVVDGVASRRRYWLFWGLAPCLFFTFAGNVLWTYVLPGLPALALLAADLLRAPLARSAWLRRGGLACLALTPLLFALFLGSLLLGSRAEQKSTAALLASDAGWRERPLVFWPKRPYSAVFYSGGRAQRAEDSELAGWLRRDALLAIRSRSFGALPDEVRQRLRCRPPVGQYQLCQGVAPPG”, the protein production result is recorded as “failed”.
In the case of “MNEPLHLYVHIPFCLKKCRYCSFVSRSDAPLAIDDYASLVAREMEMRVAAANPLPLSPATTLYLGGGTPSLLSPAALERIIDAAARSYGLGPGAEITLEANPGTVTFQRLADFRSAGVNRLSLGVQSFDDGMLVLLGRLHTARQAREAVAATRRAGFDNIGIDLIHSLPGQTPDQWREQLACAVALNPDHVSAYGLTVEEGTPFAAMEERGELVLPDEEQSALMFEATTDVLVSAGFEHYEIANFARPHRRSRHNQVYWLRRNYLGFGAGAHSFLRAPAFGVRWKNTDDLELYRDTLAAAELPGEERTVLSRADAMAEFFFLGLRLLDGVREEDFVREFGDTMENVYGREMERLCSAGLLMREGGRLKLSRRGVILANRVFASFL” it was “failed”; in that of “MKEVIHSTLAPKAIGPYSQAIATNDLVFVSGQLGIDVSTGEFKGADIHSQTTQSMENIKAILKEAGLGMDSVVKTTILLKSLDDFAVVNGIYGSYFTEPYPARATFQVAKLPKDALVEIEAIAIK”, “failed”; in that of “MCEGRRAAFQAVDNCSSGNALTSKCGEKEAGVAGDAATSPKGLTWDPAQCFYSPACNAENITSKNRSPALLSRPHAQPGESERLITVLSNRDRKASPGAAGDSGLGGASPSGRGRDGTRGWGENWLPPPAAPQATSACSGAGSGAVGAARPCSSRELAVVGGGGDASGGCVGCRAGDRTAAPSSRCPEPTWSNCSEATAPAHTGEEAAVAAVAAAPAMLCYVTRPDAVLMEVEVEAKANGEDCLNQVCRRLGIIEVDYFGLQFTGSKGESLWLNLRNRISQQMDGLAPYRLKLRVKFFVEPHLILQEQTRHIFFLHIKESLLAGHLQCSPEQAVELSALLAQTKFGDYNQNTAQYSYEDLCEKELSSSTLNSIVGKHKELEGISQASAEYQVLQIVSAMENYGIEWHAVRDSEGQKLLIGVGPEGISICKEDFSPINRIAYPVVQMATQSGKNVYLTVTKESGNSIVLLFKMISTRAASGLYRAITETHAFYRCDTVTSAVMMQYSRDLKGHLASLFLNENINLGKKYVFDIKRTSKEVYDHARRALYNAGVVDLVSRNDQSPPSSPLKSSDSSMSCSSCEGLSCQQTRVLQEKLRKLKEAMLCMVCCEEEINSTFCPCGHTVCCESCAAQLQSCPVCRSRVEHVQHVYLPTHTSLLNLTVI”, “failed”.
In the case of “MQFYNRQKELKLMELLDQGKPSFFVITGKRRVGKTELIKQFTRNRKALYLFVDSNKSINILMDEFDRLLKEKLDLPDYIKVDEPENFLKFITSYDRDLVIAIDEFQRFQKVYPSFITQLQRYWDMKPDNCRIFLIVSGSSIGMIRKIFIEEQAPLFKRADNILTIKPFTVLETFEMLDGMGIKNPEEKLNLYFLFGGTVYYYRLFEKYQCTGFDDALEKLIFSEFAPLKNEVREILIEEFGKEHSTYYEIISAISQGRCSMSEISDMTHVSSSSLSPYFYDLIDLLGVVEHRIPVMDNPEKSKRGRYFLKDNFFRFYGRFIYPMYSRYMAGNYSPMLEKVRKEWQSYTGKIFEDIVHELLVEKMISDYPELGSWWNRKGDEIDILGVDHRGRKSLVIEVKNKELAENEAREILELTLDKTKLVKGISGQKLKVGIVAQKVKGRKNLEDDGFLVWELEELIPLEHHHHHH” it was “failed”; in that of “MVIDLAVDCQRQAAVLRQQRLRTARRVDDGQTLVHQDGTGIDVHAAPVRPAMALPLRTFQGLPAQGLQVVAGLQAEDTEDGTHGNTPGKVVMGGRRINTVQDITHKKNPHRPMRVFWKLGVCVGTSPSRRPASAAHDYSRADCCGDWRWRRWTETMSWADRIPLSAATQLLRWQPSRAGKPGIPRPPRDRGRVARIMSPPSSEASAMTPRIGRLAFAALIPLVLLQGCSTTAPRTEPAKLRQLEQTAADGSFDSIWEVASQLESRNDPRAIGWYERAAATTPWTFRNALAELALGRIWASGTLTHADSPYIDQRAALRASPRKGERWYLAAAMHGNPYAIRELAKFHRERGEAAAALRWDLRVAIYERAASGPSGLPAAIAPRDGDIHPLVRDIQRRARGGDAEAQVDLGALYEKGMGGMNRDGAEALRWYRRAADQGNVYGQYFYALLLGRGSSGVTRDEETAAIWFAKASAQRFYIADASHWREAIKPPFWTFD”, “failed”.
On to “MKTTFLSLCFLLFFPLTGYSWQTAVTHISFHDLQRHRQLDSIIYYPTADQGETQLLSDTAVFRGISVLPNAPLAEGKFPLVVLSHGSGGNNTSLAWLADKLVQQGMVVVAANHPGSTTGDSIPAQSAQLWLQTEDISFIISTLLSDPRWKSALDEQAIGVIGHSKGGYSAIATLGATLSRPHFIASCQQQPEQPNCQFYTHAGVTLDQLSAEKFEGNYADKRLRFAIALDPGMVPFYQKSSLLHLSAPLLLINADYFISPNESLNLGGATWVKQLNQPGITAVTLTKSGHFDFLPLCKPAAGAILAEEGEAFICATPAVEREKLHQQTVQQILTYLQ”, for which the protein production result was “failed”.
In the case of “MLAIFQKAFAHPPEELNSPASHFSGKTPKLPGETLSDFLSHHQNNAFSMNFGDSAVLAYARQETSLRQRLFCGLDGIYCMFLGRLNNLCTLNRQYGLSGKNSNEAMFVIEAYRTLRDRGPYPADQVLRGLEGSFAFVVYDTQTSSVFSALSSDGGESLYWGISGDGSVVMSDDIQIIKQGCAKSFAPFPNGCMFHSETGLKSFDHPTNMMKAMPRIDSEGVLCGASFKVDACSKINSIPRRGSEANWALANSR”, the protein production entry is “failed”.
In the case of “MSEDRSSNGQKSWLGKLTQAFVHEPKNRQELLELLREAHQNKLLDSEALAIVEGAIQVADLQVRDIMVPRSQMISIKATQTPREFLPAVIDAAHSRYPVIGESHDDVLGVLLAKDLLPLILKADGDSDDVKKLLRPATFVPESKRLNVLLREFRANHNHMAIVIDEYGGVAGLVTIEDVLEQIVGDIEDEHDVEEDSYIKPLPSGDFLVKALTPVENFNEFFDSAFSDDEFDTVGGLVMNAFGHLPKRNEITEIGAYRFRILSADSRRIHLLRVTPISRP” it was “failed”; in that of “MLFSIVVHQMILFFSILLVGNVAAKQGVIQENYLPDLAKLVSKIFLPVLIFYMTYAGTTRQMVWENAAMIGLAALFYVVISAVTWIIAKGLRPAGDKAKVFQFAFIFGNTGFVGVPLLIALFPKDGILYLALFSIVDQLLFWTYGVYLATASDKKAKITLKSFVNPNIVAIALALIFIMIGAKLPTVIDDTLQTIKNAVGAMAMIYLGALIFYSDWKTAFKTKDLYFGIVVKMIILPILLGKLLLMTGLPNNMIWSMIILMSLPTMTVVPMIAKLYGHEGAYAAGITAATLAVSIVTIPVVVFFTT”, “failed”; in that of “NVAYPLGEGLLSFAESLESQKIHFTTEVITSRIEPANRYVAEKLRITPGQDILYLERLRSIGDEKAMLIENRINIELCPGIVEIDFNQHNLFPTIESLSKRKIRYSESRYAARLIGNERGHFLDISEDAPVLHLEQLVFFSRELPVEFGNVWLKGNKYYLGTVLQRRELS”, “not failed”.
In the case of “MRAADAPDAPLPEDRRNAPVWFAHDLEAPRCTALFPRLADRRPALVVVGGFLGSGKTTFLNNCIEYHRARERFVAVIQNEVGATGVDARLMGDGAEVLALDEGCVCCSLAGSLAGGIRAITADFTPEVILLETTGLANPLNLLAELDTLRDMVRLDAVVTVVDAANIVPTLRDSDIARDQIRGADIIVCNKCDTVDETGRAALRATLTGLNGRAALHETSFGRIHPSLFMALEGERPPRGLMPAPHGTHATHADEGFAAVRLFFSGTIDEAALAPLLQQCPGAPFRIKGIVRVTDDEAPRLVQCVGARCEVERLDGGFEGTPFLVFIGRNPDETALLEHWAALGATAEPPAPQAEADTQPAQATKSASGGQSSDATRGCHDHHLEHHHHHH” it was “failed”.

The values are drawn from a protein production outcome set (Wang et al. 2014).
